Each binder was assayed against hsINTS13(1-256Δ27-48) (human, UniProt Q9NVM9 1-256, Δ27-48) (assay: crystal structure).

Question: Does EDRLERLQEILRKFLYLEREFRQITIS [hsZNF655(93-119)] bind?
Answer: binds

What follows are binders tested against 2S-hsINTS13-hsINTS14 (human, UniProt Q9NVM9;Q96SY0) (assay: fluorescence polarisation).

Question: With DTGSETDEEDKLHIAEDD [GFP-hsZEB2 (33-50)] as the binder, how does the Kd read?
Answer: > 10000 nM

Question: How did the Kd turn out when EGEEDEEGKLVIDEPAK [GFP-hsHDGF S2E (130-146)] was run?
Answer: 2630 nM

Question: Which Kd does the source give for EGSSDEEGKLVIDEPAK [GFP-hsHDGF (130-146)] here?
Answer: 5850 nM

Question: How did the Kd turn out when EDRLERLQEILRKFLYLEREFRQITIS [GFP-hsZNF655 (93-119)] was run?
Answer: 17.6 nM

Question: With DEWDIGVGNLIIDLDAD [GFP-hsZNF609 (25-41)] as the binder, how does the Kd read?
Answer: 573 nM

Question: DDWEIGVGNLIIDLDAD [GFP-hsZNF608 (24-40)] was tested. Which Kd did it give?
Answer: 633 nM

Question: For YDSDGDKSDDLVVDVSNE [GFP-hsTLE3 (238-255)], which Kd is on record?
Answer: > 10000 nM

Reference: article doi:10.1101/2024.01.24.576984 (bioRxiv, 2024)
